Data from article PMC6222663, “Biochemical Characterization of the Rice Cinnamyl Alcohol Dehydrogenase Gene Family” (Molecules : A Journal of Synthetic Chemistry and Natural …, 2018).

Tests used:
Assay in all cases: NADPH consumption at A340, Lineweaver-Burk
Format in all cases: biochemical, Oryza sativa
Details in all cases: 300 μM NADPH, 100 mM sodium/potassium phosphate pH 6.25, 30 °C, substrate 5–50 μM
[1] = substrate: COc1cc(/C=C/C=O)cc(OC)c1O
Description: (§1) NADPH consumption at A340, Lineweaver-Burk on OsCAD7

[2] = substrate: COc1cc(/C=C/C=O)ccc1O
Description: as §1

[3] = substrate: O=C/C=C/c1ccc(O)cc1
Description: as §1

[4] = substrate: O=CC=Cc1ccccc1
Description: as §1

[5] = substrate: COc1cc(/C=C/C=O)cc(OC)c1O; remark: listed apart in the source
Description: (§2) NADPH consumption at A340, Lineweaver-Burk on OsCAD2

[6] = substrate: COc1cc(/C=C/C=O)ccc1O; remark: listed apart in the source
Description: as §2

[7] = substrate: O=C/C=C/c1ccc(O)cc1; remark: listed apart in the source
Description: as §2

[8] = substrate: O=CC=Cc1ccccc1; remark: listed apart in the source
Description: as §2

[9] = substrate: COc1cc(/C=C/C=O)cc(OC)c1O; remark: listed apart in the source
Description: (§3) NADPH consumption at A340, Lineweaver-Burk on OsCAD6

[10] = substrate: COc1cc(/C=C/C=O)ccc1O; remark: listed apart in the source
Description: as §3

[11] = substrate: O=C/C=C/c1ccc(O)cc1; remark: listed apart in the source
Description: as §3

[12] = substrate: O=CC=Cc1ccccc1; remark: listed apart in the source
Description: as §3

B1: OsCAD7 (Oryza sativa Japonica Group) (protein)
chain: MAPTTTATAAAEQAPPPQHTRKAVGLAAHDDSGHLTPIRISRRKTGDDDVAIKVLYCGICHSDLHTIKNEWRNAVYPVVAGHEITGVVTEVGKNVARFKAGDEVGVGCMVNTCGGCESCRDGCENYCSGGVVFTYNSVDRDGTRTYGGYSDAVVVSQRFVVRFPSSAGGGAGAALPLDSGAPLLCAGVTVYAPMRQHGLCEAGKHVGVVGLGGLGHVAVKFARAFGMRVTVISTSPVKRQEALERLGADGFIVSTNASEMKAAMGTMHGIINTASASTSMHSYLALLKPKGKMILVGLPEKPLQIPTFALVGGGKILAGSCMGSISETQEMIDFAAEHGVAADIELIGADEVNTAMERLAKGDVRYRFVVDIGNTLRSD
Question: With B1 as the protein, how does the Km [1] read?
Answer: Its Km is 6.42 ± 1.77 µM.

Question: And the Vmax [1]?
Answer: Its Vmax is 0.17 µmol/min/mg.

Question: And the kcat [1]?
Answer: Its kcat is 0.128 s⁻¹.

Question: And the kcat/Km [1]?
Answer: The kcat/Km was 21200 M⁻¹ s⁻¹.

Question: And the Km [2]?
Answer: The Km was 11.44 ± 2.16 µM.

Question: And the Vmax [2]?
Answer: Its Vmax is 0.38 µmol/min/mg.

Question: And the kcat [2]?
Answer: The kcat was 0.285 s⁻¹.

Question: And the kcat/Km [2]?
Answer: Its kcat/Km is 25300 M⁻¹ s⁻¹.

Question: And the Km [3]?
Answer: The Km was 2.66 ± 0.49 µM.

Question: And the Vmax [3]?
Answer: Its Vmax is 0.09 µmol/min/mg.

Question: And the kcat [3]?
Answer: The kcat was 0.0692 s⁻¹.

Question: What about the kcat/Km [3] of the same protein?
Answer: Its kcat/Km is 26300 M⁻¹ s⁻¹.

Question: What about the Km [4] of the same protein?
Answer: The Km was 14.11 ± 4.00 µM.

Question: What about the Vmax [4] of the same protein?
Answer: Its Vmax is 0.25 µmol/min/mg.

Question: And the kcat [4]?
Answer: Its kcat is 0.188 s⁻¹.

Question: And the kcat/Km [4]?
Answer: The kcat/Km was 13700 M⁻¹ s⁻¹.

B2: OsCAD2 (Oryza sativa Japonica Group) (protein)
chain: MGSLAAEKTVTGWAARDASGHLTPYNYTLRKTGPEDVVVKVLYCGICHTDIHQAKNHLGASKYPMVPGHEVVGEVVEVGPEVTKYSAGDVVGVGVIVGCCRECHPCKANVEQYCNKRIWSYNDVYTDGRPTQGGFASAMVVDQKFVVKIPAGLAPEQAAPLLCAGLTVYSPLKHFGLMSPGLRGGVLGLGGVGHMGVKVAKSMGHHVTVISSSARKRGEAMDDLGADAYLVSSDAAAMAAAGDSLDYIIDTVPVHHPLEPYLALLKLDGKLILMGVINQPLSFISPMVMLGRKAITGSFIGSMAETEEVLNFCVDKGLTSQIEVVKMDYVNQALERLERNDVRYRFVVDVAGSNIDDADAPPA
Question: Which Km [5] does the source give for B2 here?
Answer: The Km was 8.19 ± 2.62 µM.

Question: And the Vmax [5]?
Answer: The Vmax was 52.9 µmol/min/mg.

Question: And the kcat [5]?
Answer: The kcat was 41.2 s⁻¹.

Question: And the kcat/Km [5]?
Answer: The kcat/Km was 5.35e+06 M⁻¹ s⁻¹.

Question: And the Km [6]?
Answer: Its Km is 4.37 ± 0.85 µM.

Question: And the Vmax [6]?
Answer: The Vmax was 38.7 µmol/min/mg.

Question: And the kcat [6]?
Answer: Its kcat is 30.1 s⁻¹.

Question: What about the kcat/Km [6] of the same protein?
Answer: The kcat/Km was 7.15e+06 M⁻¹ s⁻¹.

Question: And the Km [7]?
Answer: The Km was 9.36 ± 2.50 µM.

Question: What about the Vmax [7] of the same protein?
Answer: Its Vmax is 17.8 µmol/min/mg.

Question: And the kcat [7]?
Answer: The kcat was 13.9 s⁻¹.

Question: And the kcat/Km [7]?
Answer: Its kcat/Km is 1.54e+06 M⁻¹ s⁻¹.

Question: And the Km [8]?
Answer: Its Km is 5.30 ± 3.42 µM.

Question: What about the Vmax [8] of the same protein?
Answer: Its Vmax is 11.6 µmol/min/mg.

Question: And the kcat [8]?
Answer: The kcat was 9.05 s⁻¹.

Question: And the kcat/Km [8]?
Answer: Its kcat/Km is 2.37e+06 M⁻¹ s⁻¹.

B3: OsCAD6 (Oryza sativa Japonica Group) (protein)
chain: MEVTPNHTQTVSGWAAMDESGKIVPFVFKRRENGVDDVTIKVKYCGMCHTDLHFIHNDWGITMYPVVPGHEITGVVTKVGTNVAGFKVGDRVGVGCIAASCLDCEHCRRSEENYCDKVALTYNGIFWDGSITYGGYSGMLVAHKRFVVRIPDTLPLDAAAPLLCAGITVYSPMKQHGMLQADAAGRRLGVVGLGGLGHVAVKFGKAFGLHVTVISTSPAKEREARENLKADNFVVSTDQKQMQAMTRSLDYIIDTVAATHSLGPILELLKVNGKLVLVGAPEKPVELPSFPLIFGKRTVSGSMTGGMKETQEMMDICGEHNITCDIEIVSTDRINDALARLARNDVRYRFVINVGGDSKL
Question: Which Km [9] does the source give for B3 here?
Answer: The Km was 10.72 ± 0.47 µM.

Question: And the Vmax [9]?
Answer: Its Vmax is 0.103 µmol/min/mg.

Question: And the kcat [9]?
Answer: The kcat was 0.0733 s⁻¹.

Question: And the kcat/Km [9]?
Answer: Its kcat/Km is 6830 M⁻¹ s⁻¹.

Question: And the Km [10]?
Answer: Its Km is 16.18 ± 4.49 µM.

Question: And the Vmax [10]?
Answer: The Vmax was 0.217 µmol/min/mg.

Question: What about the kcat [10] of the same protein?
Answer: The kcat was 0.154 s⁻¹.

Question: What about the kcat/Km [10] of the same protein?
Answer: The kcat/Km was 9670 M⁻¹ s⁻¹.

Question: What about the Km [11] of the same protein?
Answer: The Km was 10.88 ± 4.29 µM.

Question: What about the Vmax [11] of the same protein?
Answer: Its Vmax is 0.11 µmol/min/mg.

Question: And the kcat [11]?
Answer: Its kcat is 0.0757 s⁻¹.

Question: And the kcat/Km [11]?
Answer: The kcat/Km was 7500 M⁻¹ s⁻¹.

Question: What about the Km [12] of the same protein?
Answer: Its Km is 28.25 ± 11.36 µM.

Question: And the Vmax [12]?
Answer: The Vmax was 0.439 µmol/min/mg.

Question: And the kcat [12]?
Answer: Its kcat is 0.311 s⁻¹.

Question: And the kcat/Km [12]?
Answer: The kcat/Km was 11500 M⁻¹ s⁻¹.
